# Positions count from the first letter of the chain named.
# B1: modified anti-CD4 antibody VH3/VK4 (antibody, V domains shown)
# VH: EVQLQQSGSELKRPGASVKMSCKASGYTFANYWMHWVKQAPGQGLQWIGALYPGNVDTTYNQKFKDKAKLTAVTSASTAYMELSSLTNEDTAVYYCTRMGTTLEAPLDYWGQGTLVTVSS
# VL: QIVLTQSPAILSASPGEKAAMTCSARSSVSYLYWYQQKPGSSPRLLIYDTSNLASGVPSRFIGSGSGTDYSLTISSMEAEDAATYYCQQWSDYPLTFGAGTKLEIK
# B2: modified anti-CD4 antibody VH2/VK1 (antibody, V domains shown)
# VH: B1 VH with M20V, V73D
# VL: B1 VL with I10T, L45A, I62S
# B3: modified anti-CD4 antibody VH4/VK2 (antibody, V domains shown)
# VH: B1 VH with S9T, T91S, L115T
# VL: B1 VL with I10T, I62S
# B4: modified anti-CD4 antibody VH4/VK1 (antibody, V domains shown)
# VH: B1 VH with S9T, T91S, L115T
# VL: B1 VL with I10T, L45A, I62S
# B5: modified anti-CD4 antibody VH4/VK4 (antibody, V domains shown)
# VH: B1 VH with S9T, T91S, L115T
# VL: B1 VL
# B6: modified anti-CD4 antibody VH1/VK1 (antibody, V domains shown)
# VH: B1 VH with M20V, K38R, L70I, A72R, V73D
# VL: B1 VL with I10T, L45A, I62S
# notes: VK1=20, VK2=18, VK3=16, VK4=14
# B7: modified anti-CD4 antibody VH3/VK2 (antibody, V domains shown)
# VH: B1 VH
# VL: B1 VL with I10T, I62S
# B8: modified anti-CD4 antibody VH1/VK4 (antibody, V domains shown)
# VH: B1 VH with M20V, K38R, L70I, A72R, V73D
# VL: B1 VL
# B9: modified anti-CD4 antibody VH2/VK2 (antibody, V domains shown)
# VH: B1 VH with M20V, V73D
# VL: B1 VL with I10T, I62S
# B10: modified anti-CD4 antibody VH2/VK4 (antibody, V domains shown)
# VH: B1 VH with M20V, V73D
# VL: B1 VL
# B11: chimeric anti human CD4-antibody (chimeric IgG4) (antibody, V domains shown)
# VH: B1 VH with S9T, E10V, K12A, K19Q, T28S, A40R, T91S, L115T, V116L
# VL: B1 VL with L11M, A19V, S59V, D69S, S76R, I105L
# notes: Mouse VH and VL were cloned into pANTVhG4 (human genomic IgG4 constant region) and pANTVk (human kappa constant region) and expressed in NS0 cells; also called chimeric anti-CD4 antibody; chimeric antibody
# B12: monoclonal mouse anti human CD4-antibody 30F16H5 (antibody, mouse IgG1, V domains shown)
# VH: B1 VH with S9T, E10V, K12A, K19Q, T28S, A40R, T91S, L115T, V116L
# VL: B1 VL with L11M, A19V, S59V, D69S, S76R, I105L
# notes: also called Max16H5; Max.16H5
# Target: T1, human CD4 (coated on ELISA plate) (human, UniProt P01730 26-396, limits assumed)
# Assay: competition ELISA, plate-coated human CD4, competitor biotinylated mouse antibody at 0.2 µg/ml
row,Relative Binding (IC50 of test sample divided by IC50 of mouse antibody) [fold],Binder
1,1.44,B1
2,8.66,B2
3,0.73,B3
4,3.89,B4
5,0.49,B5
6,0.14,B6
7,1.77,B7
8,5.06,B8
9,0.96,B9
10,1.44,B10

# Target: T1, human CD4 (coated on ELISA plate)
# Assay: competition ELISA, plate-coated CD4, competitor biotinylated mouse anti-CD4 at 0.2 µg/ml
# Experimental: The chimeric antibody was tested in an ELISA-based competition assay using mouse anti-CD4 antibody, biotinylated using a B-Tag micro biotinylation kit (Sigma, Poole UK). A dilution series of chimeric IgG4 or control mouse antibody from 10 μg/ml to 0.009 μg/ml was premixed with a constant concentration of biotinylated anti-CD4 (0.2 μg/ml) before incubating 100 μl/well for 1 hour at room temperature in a Nunc MaxiSorp 96 well flat bottom microtitre plate (Fisher, Loughborough, UK) pre-coated with 50 μl/well of 1 μg/ml CD4. The binding of the biotinylated mAb was determined by incubating for 1 h at room temperature with 100 μl/well of a 1/500 dilution of streptavidin-HRP (Sigma), followed by detection with 100 μl/well OPD substrate (Sigma). After stopping the reaction with 50 μl/well 3M HCl, absorbance at 490 nm was measured using a Dynex Technologies (Worthing, UK) MRX TC II plate reader.
# Therefore the correct variable region sequences have been identified and cloned.
row,IC50 [mg/L],Binder
1,0.25,B11
2,0.18,B12
